Experimental data reported in publication PMC7794242.

Biological target: HCoV-229E S glycoprotein wild-type soluble ectodomain (residues 1-1116) with C-terminal GCN4 trimerization motif (HCoV-229E) (UniProt P15423)
Test: cryo-EM structure; S trimer peak 2 (conformation 1, 3.21 A) and peak 3 (conformation 2, 3.55 A) samples at 0.75 mg/ml; C3 symmetry applied

Substance “HCoV-229E S glycoprotein wild-type soluble ectodomain (residues 1-1116) with C-terminal GCN4 trimerization motif (from UniProt P15423 16-1116) (domain or fragment)” has a stoichiometry N of 3.
